Test results from paper PMC8669144, “Imaging of Glioblastoma Tumor-Associated Myeloid Cells Using Nanobodies Targeting Signal Regulatory Protein Alpha” (Frontiers in Immunology, 2021).
Where two headings read alike, the source gives them in different places.

Experiments:
[1] = target: T1, recombinant ligand binding domain of mouse SIRPα (mSIRPα) (mouse); test: SPR
T1 chain: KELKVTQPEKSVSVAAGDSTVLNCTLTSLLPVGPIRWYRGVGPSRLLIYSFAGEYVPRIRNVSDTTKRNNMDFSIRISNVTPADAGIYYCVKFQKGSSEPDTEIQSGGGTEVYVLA

[2] = target: T1, recombinant ligand binding domain of …; test: SPR
[3] = target: T2, recombinant ligand binding domain of mouse SIRPα (mSIRPα) (Mus musculus, strain  …, UniProt P97797); test: SPR; Biacore T200; recombinant antigen immobilised by amine coupling on a CM5 chip; nanobodies injected in 2-fold dilutions from 500 to 1.95 nM; 25°C; HBS (20 mM HEPES pH 7.4, 150 mM NaCl, 0.005% Tween-20, 3.4 mM EDTA); 1:1 binding model; details: both partners purified
T2 construct: the results call the antigen the recombinant extracellular domain, the discussion the recombinant ectodomain; Gene ordered at GenScript; Captured on Ni-NTA, so a His tag was present at purification; also called recombinant antigen; recombinant SIRPα; source: E. coli WK6 (pHEN6), periplasmic extract, purified (IMAC on HisPur Ni-NTA, SEC Superdex S75)
T2 sequence (P97797 whole entry, looked up, the tested form may be a part): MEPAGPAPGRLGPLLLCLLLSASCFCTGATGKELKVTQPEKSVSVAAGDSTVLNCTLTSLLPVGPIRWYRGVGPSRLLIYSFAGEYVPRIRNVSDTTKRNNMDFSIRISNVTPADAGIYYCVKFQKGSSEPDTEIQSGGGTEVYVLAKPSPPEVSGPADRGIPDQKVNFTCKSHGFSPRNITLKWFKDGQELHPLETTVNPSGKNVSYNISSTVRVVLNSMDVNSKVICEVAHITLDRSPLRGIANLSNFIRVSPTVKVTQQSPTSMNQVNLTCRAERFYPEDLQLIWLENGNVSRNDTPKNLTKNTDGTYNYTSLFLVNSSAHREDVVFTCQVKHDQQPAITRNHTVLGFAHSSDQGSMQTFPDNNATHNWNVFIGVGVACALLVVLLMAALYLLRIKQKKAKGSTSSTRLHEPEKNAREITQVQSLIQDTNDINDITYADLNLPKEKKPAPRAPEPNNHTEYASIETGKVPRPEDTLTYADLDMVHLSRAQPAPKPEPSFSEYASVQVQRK

[4] = target: T3, mouse SIRPα natively expressed on RAW 264.7 macrophages (Mus musculus, endogenous in RAW 264.7 …, UniProt P97797); test: flow cytometry on cells; 1 µg purified nanobody with 2 x 10^5 RAW 264.7 cells, 4°C, 1 h; detected with AF488 anti-HA antibody; threshold triple ΔMFI of the non-targeting BabA Nb19; details: one partner purified
T3 construct: also called native murine SIRPα; cell-membrane mSIRPα; source: endogenous, on RAW 264.7 cells

[5] = target: T2, recombinant ligand binding domain of …
[6] = target: T1, recombinant ligand binding domain of …; test: SPR
[7] = target: T1, recombinant ligand binding domain of …; test: SPR
[8] = target: T3, mouse SIRPα natively expressed on RAW …; test: radioligand binding; 99mTc-labeled nanobodies at 2, 20 and 200 nM on adherent RAW 264.7 cells, 1 h, 4°C; aspecific binding with 100x molar excess of unlabeled Nb; details: one partner purified

B1: anti-mSIRPα nanobody Nb54 as used in SPR and epitope binning (VHH)
VHH: QVQLQESGGGSVQAGGSLRLSCSASGHMYGSVIGWFRQAPGKERVGVAAIYTYAGSEYYADSVKGRFTVSQDTQDNAKNTVYLQMSSLNVEDTAMYYCAVGFPLGRLTTVRTLASNEYKYWGQGTQVTVSS
notes: source: E. coli WK6, periplasmic extraction, purified (IMAC, SEC)
**Q.** B1 was tested. Which koff [1] did it give?
**A.** Its koff is 0.221 s⁻¹.

**Q.** What about the Kd [2] of the same binder?
**A.** The Kd was 354 nM.

**Q.** Does B1 bind [3]?
**A.** Result: binds

B2: anti-mSIRPα nanobody Nb54, HA- and His6-tagged (pMECS) (VHH)
VHH: QVQLQESGGGSVQAGGSLRLSCSASGHMYGSVIGWFRQAPGKERVGVAAIYTYAGSEYYADSVKGRFTVSQDTQDNAKNTVYLQMSSLNVEDTAMYYCAVGFPLGRLTTVRTLASNEYKYWGQGTQVTVSS
notes: also called clone 54; source: E. coli WK6, periplasmic extraction, purified (IMAC, SEC)
**Q.** Does B2 bind [4]?
**A.** Result: binds

B3: Nb 25 (VHH)
VHH: QVQLQESGGGSVQAGGSLRLSCAASGHSFTLDCMGWFRQAPGKERESVAEINMYSGNTYYADSVKGRFTISRDSAKSTVNLQMNSLKPEDTAIYFCAAAPTCARWDYRGQGTQVTVSS
**Q.** Does B3 bind [5]?
**A.** Result: binds

B4: Nb 33 (VHH)
VHH: QVQLQESGGGLVQPGGSLRLSCAASGFTFSSYFMSWVRQAPGKGLEWVSGINSDGSMTYYLDSVKGRFTMSRDNAKNTLYLEMNSLKSEDTALYYCALRGVFSDYALHSQGTQVTVSS
**Q.** Does B4 bind [5]?
**A.** Result: binds

B5: Nb 75 (VHH)
VHH: QVQLQESGGGLVQPGDSLRLSCAASEFAFSSYFMSWVRQAPGKGLEWVSGINTDGSMTYYSDSVKGRFTISRDNAKNTLYLQMNSLKSEDTALYYCVLRGVFSDYALQSQGTQVTVSS
**Q.** Does B5 bind [5]?
**A.** Result: binds

B6: Nb 53 (VHH)
VHH: QVQLQESGGGSVQAGGSLRLSCAASGYTYSDYCMGWFRQAPGKEREVVAEINIVDGDTYYADSVKGRFTISQDNAKNTVYLRMNSLKPDDTAIYVCAATGRRCQGYNSWGQGTQVTVSS
**Q.** Does B6 bind [5]?
**A.** Result: binds

B7: bivalent anti-SIRPα Nb15 (pHEN25 construct, dimerised through a cysteine) (VHH)
VHH: EVQLQESGGGSVQAGGSLRLSCATSGLTYSAYCMGWFRQAPGKGRETVAQINLGDGDTYYADSVKGRFAISQDNAKNTVHLLMNGLKPEDTAIYYCAGSDHMCAKWHYWGQGTQVTVSS
modifications: 99mTc tricarbonyl at the His6-tag (in the radioligand binding assay only)
**Q.** B7 was tested. Which koff [6] did it give?
**A.** Its koff is 0.00733 s⁻¹.

**Q.** And the Kd [7]?
**A.** Its Kd is 57.4 nM.

B8: bivalent anti-SIRPα Nb15 (pHEN25 construct, dimerised through a cysteine) (VHH)
VHH: EVQLQESGGGSVQAGGSLRLSCATSGLTYSAYCMGWFRQAPGKGRETVAQINLGDGDTYYADSVKGRFAISQDNAKNTVHLLMNGLKPEDTAIYYCAGSDHMCAKWHYWGQGTQVTVSS
notes: as the VHH of m7 (Nb15); fourteen amino acid long linker and a cysteine after the His6 tag (pHEN25); The cysteine allows dimerization; The order of His6 tag, linker and cysteine is worded loosely; also called bivalent Nb15; bivalent construct of Nb15; source: E. coli WK6 (pHEN25), periplasmic extraction, purified (IMAC, SEC); not shown: His6, C-terminal, kept
**Q.** What does the source list for B8?
**A.** binding result [8]: binds; binding result [3]: binds

B9: Nb 12 (VHH)
VHH: QVQLQESGGGSVQAGGSVKLSCATSGLTYSAYCMGWFRQAPGKGRETVAQINLGDGDTYYADSVKGRFTISLDNARNTVYLQMNSLKPEDTAIYYCAATYSSRCASFGYWGQGTQVTVSS
**Q.** Does B9 bind [5]?
**A.** Result: binds

B10: Nb 47 (VHH)
VHH: QVQLQESGGGSVQAGGSLRLSCAASGFTYSLYCMGWFRQAPGKEREKVAEMDKSSGDTDYADSVKGRFTISQDNAKNTVYLMMNSLKPEDTAIYYCAATGYRCQGYNAWGQGTQVTVSS
**Q.** Does B10 bind [5]?
**A.** Result: binds

B11: Nb 26 (VHH)
VHH: QVQLQESGGGSVQAGGSLRLSCATSGLTYTAYCMGWFRQAPGKGRETVAQINLGDGDTYYADSVKGRFAISQDNAKNTVYLLMNSLQPEDTAIYYCATTDGRCQKWQYWGQGTQVTVSS
**Q.** Does B11 bind [5]?
**A.** Result: binds

B12: anti-mSIRPα nanobody Nb15, HA- and His6-tagged (pMECS) (VHH)
VHH: QVQLQESGGGSVQAGGSLRLSCATSGLTYSAYCMGWFRQAPGKGRETVAQINLGDGDTYYADSVKGRFAISQDNAKNTVHLLMNGLKPEDTAIYYCAGSDHMCAKWHYWGQGTQVTVSS
notes: An alpaca and two dromedaries were immunised; also called clone 15; source: E. coli WK6, periplasmic extraction, purified (IMAC, SEC)
**Q.** Does B12 bind [4]?
**A.** Result: binds

B13: monovalent anti-mSIRPα nanobody Nb15, His6-tagged (VHH)
VHH: QVQLQESGGGSVQAGGSLRLSCATSGLTYSAYCMGWFRQAPGKGRETVAQINLGDGDTYYADSVKGRFAISQDNAKNTVHLLMNGLKPEDTAIYYCAGSDHMCAKWHYWGQGTQVTVSS
notes: both carry a C-terminal His6; also called monovalent Nb15; anti-SIRPα Nb15; source: E. coli WK6, periplasmic extraction, purified (IMAC, SEC); not shown: His6, C-terminal, kept
**Q.** Does B13 bind [8]?
**A.** Result: binds

**Q.** Does B13 bind [3]?
**A.** Result: binds

B14: monovalent anti-mSIRPα nanobody Nb15, His6-tagged (VHH)
VHH: QVQLQESGGGSVQAGGSLRLSCATSGLTYSAYCMGWFRQAPGKGRETVAQINLGDGDTYYADSVKGRFAISQDNAKNTVHLLMNGLKPEDTAIYYCAGSDHMCAKWHYWGQGTQVTVSS
modifications: 99mTc tricarbonyl at the His6-tag (in the radioligand binding assay only)
**Q.** Which koff [1] does the source give for B14 here?
**A.** The koff was 0.00809 s⁻¹.

**Q.** And the Kd [7]?
**A.** Its Kd is 109 nM.

**Q.** And the Kd [2]?
**A.** Its Kd is 49.4 nM.

B15: Nb 42 (VHH)
VHH: QVQLQESGGGSVQAGGSLRLSCAASGFTYSNYCMAWFRQAPGKERESVAQINNNDGDTYYAASVKGRFTISQDNAKNPVYLQMDSLKPEDTAMYYCAASDSRCLEYKYWGQGTQVTVSS
**Q.** Does B15 bind [5]?
**A.** Result: binds

B16: Nb 35 (VHH)
VHH: QVQLQESGGGSVQAGGSLRLSCAASGYSYSSTCMAWFRQVPGKEREGVASINNSGTATYYADSVKGRFTISRDNAKNTLYLLMDNLKPEDTAIYYCAASLRRGQDCLGAIDYWGQGTQVTVSS
**Q.** Does B16 bind [5]?
**A.** Result: binds

B17: Nb 52 (VHH)
VHH: QVQLQESGGGSVQAGGSLRLSCAASGFTYSNYCMAWLRQAPGKERESVAQININDGDTYYAASVKGRFTISQDNAKNTVYLMMNSLKPEDTAIYYCAATGYGCQGYNAWGQGTQVTVSS
**Q.** Does B17 bind [5]?
**A.** Result: binds

B18: Nb 1 (VHH)
VHH: QVQLQESGGGSVQAGGSLRLSCSASGHMYGSVIGWFRQAPGKEREGVAAIYTYDGSEYYADSVKGRFTVSQDTQDNAKNTVYLQMSSLNVEDTAMYYCAVGFPLGRLTTVRVLASNEYKYGTQVTVSS
**Q.** Does B18 bind [5]?
**A.** Result: binds

B19: anti-mSIRPα nanobody Nb89 as used in SPR and epitope binning (VHH)
VHH: QVQLQESGGGLVQPGGSLRLSCAASGFAFSRNSMRWVRQAPGKGLEWVSSISSDGKYTYYTDSVKGRFAISRDNANNTLYLQMNSLKSEDTALYYCSTGGAPASQGTQVTVSS
notes: as for B1
**Q.** B19 was tested. Which koff [1] did it give?
**A.** The koff was 0.0087 s⁻¹.

**Q.** And the Kd [2]?
**A.** The Kd was 6.9 nM.

**Q.** Does B19 bind [3]?
**A.** Result: binds

B20: anti-mSIRPα nanobody Nb89, HA- and His6-tagged (pMECS) (VHH)
VHH: QVQLQESGGGLVQPGGSLRLSCAASGFAFSRNSMRWVRQAPGKGLEWVSSISSDGKYTYYTDSVKGRFAISRDNANNTLYLQMNSLKSEDTALYYCSTGGAPASQGTQVTVSS
notes: also called clone 89; source: E. coli WK6, periplasmic extraction, purified (IMAC, SEC)
**Q.** Does B20 bind [4]?
**A.** Result: binds

B21: Nb 3 (VHH)
VHH: QVQLQESGGGSVQAGGSLRLSCAAFGFTYSNYCVTWFRQAPGKERERVASIDRSNGDTLYTESVKGRFTISQDNAKNTVSLVMNSLKPEDTAIYYCAATDRYCADWRTWGQGTQVTVSS
**Q.** Does B21 bind [5]?
**A.** Result: binds

B22: Nb 92 (VHH)
VHH: QVQLQESGGGSVQAGGSLRLSCAASGYISSTSYVGWFRQAPGKEREKVAEARSGGDYTWYADSVKGRFTISQDNAKNTVYLQMNSLKPEDTAIYYCAAGEFGGPYNNWGQGTQVTVSS
**Q.** Does B22 bind [5]?
**A.** Result: binds
